The data set is described as follows: soluble on expression in E. coli; label from the status in PepcDB or PDB records.
“AHHHHHHGSITLELHPSEIARYFELEECSHYFSNLLLRKRGELQEFEPIIRRKEIETIELAKWGDEFELSLLQEFKKGEALKKLGVKELPRFYGFLTENDTPVRKFFEKYFKDGIIVEEDPDKLLEIINSEKSAVIYQAPLKGRIGKFDVSGRADFIIKVGKTLYLLEAKFTKEEKFYHRIQAIIYAHLLSQMIEGYEIKLAVVTKENFPIPSNFLRFPGDVEELKITLEEKLGGILREQELWIDARCTTCPFEALCLSKALEERSLGLLSLPPGIIRILKEEGIKDLKDMAKLFEFKENSPTNFEEPSIKDPKKTQEIAKRTGINLLKLSRIAQAILKYLDEGETTPLFIPRTGYNLPMDERVGDVEPSYYPPRSLVKVFFYVQTSPITDTIIGISALVKNRQNGERIIVKFVDEPPIEVSDAQEKERMLLIEFFRDVIDAVKSLSPTDKVYLHMYFYNRKQRDDLMDAVKRHKEIRENNAVMALLSLRRAIDWESFSIIKDEIIRRHALPLSPGLGFVTVATQFGYRWRRNKTFARMLEVVARRENGKINLKTLLNISETGIGPEYYPIIDRDNEGIPFTLFWSALVKLATEEDNSRIKRDIRDILSQMVEALKTIEERIPEQYKDAFVKKEGIPKEDLENFDIKKEELADILLEYLQLEFDARFRERSEYYRLPLSIRAYSEESALIKIENIEKKKNDCLLFGKIVLIDENGRIKEYNPKEVLIDIDEGSLVVVTPKKFLDKLRRDPVQRISKSPLGIVEAIDHETGKVVIRLIRVSPGRFTLKHSKFSCKNGLLTITYPEGEVKVTPGEIVIVDPSVDDIGMERAYNVLSEISQGELKHEIYQKVKAIYEGNTESRYEVNIWKKKHIEEFLSRVKKINEEQKKFAIDINNFLVTLQGPPGTGKTSGAIAPAILARAYSMVKDKKNGLFVVTGVSHRAVNEALIKTLKLKKELENTLKELRKIDLIRAVSGEEAIKIIKEELEREIKDDVDRIRFTAQEITHSSKQRSLDKYFANSGTVRIVFGTPQTLNKLMKNTKEVELVVIDEASMMDLPMFFLSTKVCKGQVLLVGDHRQMEPIQVHEWQLEDRKTFEEHYPFLSALNFIRFLRGELDERELKKFKRILGREPPEWKKDKNEVLPLYRLVRTYRLPQEIADLLSDAIYRADGIKLISEKKKRRKIIARHKDEFLSIVLDDRYPFVLILHDEGNSTKINELEAKIVEKIIKRVENIDIGVVVPYRAQKRLIASLIDSAQVDTVERFQGGEKSLIVISMTSSDPRIPGKGF”: the “soluble on expression in E. coli” value is reported as “not soluble”.
Take “MLQCGAKNVNPLERFVSSLPVAAVLPELLAALDGASQVLLSAPTGAGKSTWLPLQLLAHPGINGKIILLEPRRLAARNVAQRLAELLNEKPGDTVGYRMRAQNCVGPNTRLEVITEGVLTRMIQRDPELSGVGLVILDEFHERSLQADLALALLLDVQQGLRDDLKLLIMSA”: the “soluble on expression in E. coli” value is “not soluble”.
Consider “MGSDKIHHHHHHMSTPLSHATLEQLFLNARTHSHWQPRPVSDELLHQLHELLKQAPTSANCSPARFVFVKSEAAKAKLKPCLAAGNVDKTMAAPVCVIVAHDTRFYEHLPQLFPHADAKSWFEGNQPLIDTTAFRNGTLQGAYLILAARSLGLDCGPMSGFDNAAVDAAFFPDGRVKSNFLINLGYGEADKLFPRSPRFGFDEACQIL”, for which the “soluble on expression in E. coli” value is “not soluble”.
For “MMQPLQLSAGGFAVVLGTNEIASAVAVHLHREGCCVVMSHDPFPPVIRRKMAFHDALYGDEVTVEGVRGERVDHATQIFKALRRSDNVLVSWLALPDLLPIGAVDVLIDARMQKHRVTPDLRGLARISVGLGPGFSTAVNCDVAIETRPGRSGLIVGAGWTDAADGVASPLGGVGAERFEYSQASGRWRTAVEIGSRVFSGFTIGHLGGVPVRAPCDGILRGVVRDGQDVPQGVKLLEVDSRGRHAQWTGIDDRGRGIAKAVLRAVQPQAEIRTSYAAQPIAVFLEHHHHHH”, the “soluble on expression in E. coli” value was “not soluble”.
In the case of “GAKDSTVQTSISVENVLERAGDSTPFSVALESIDAMKTIEEITIAGSGKASFSPLTFTTVGQYTYRVYQKPSQNKDYQADTTVFDVLVYVTYDEDGTLVAKVISRRAGDEEKSAITFKPKRLVKPIPPRQPDFPKTPLPLA” it was “soluble”; in that of “MGSDKIHHHHHHVESLLTAADLHIHTTASDGTASPEAVLSYVATETDLRVIAITDHDTLRGALYARERASHYGIDVIVGCEISTRSGHLLALFIEQPVPAGLSVTETVARIHDQGGMAFAAHPFGMLVPSIGRRHLLGPERTDVDWMQLDGIEVFNASLWNPMNNERAARCAQRWGLTHIGGSDAHNLTMIGAGRTLFAGTGAADLRRALQRRATLVHGRYWGWRGVAGVVRERVWRQFGRPVESVS”, “not soluble”; in that of “GMETTHYSIAQHFSSGDFPAVYACFNDIIEWNIIGNQVVKGKADVIDFCNKMLPEMKGAVLTNDNVIQNENQIVIEGKCRYFDAEGKEAFVSYCDIYRFENDTIKTITSYCI”, “soluble”.
Turning to “GGGSGGSKKDEHKQQGELYMWDSIDQKWTRHYCAIADAKLSFSDDIEQTMEEDNPLGSLCRGILDLNTYNVVKAPQGKNQKSFVFILEPKQQGDPPVEFATDRVEELFEWFQSIREITWKIDTK”, the “soluble on expression in E. coli” value is recorded as “soluble”.
In the case of “MGSDKIHHHHHHMSNELESNDVIKISVSHLALGMFVTAIDNAKGALSITNPGQIKTQDAINKLLKSGIKSVWVDVERSADNCGLKKTSAESFEPTKGNPLARKAKPSRDSKQAQVKVILNEAKNLVRKVLSETYEGKAVEVAPFEEIADRMIESVMDDADAMKCISALRTKDAYLLEHSVNVAFLLVTFGKHLGLDKTMLKEMAVGGILHDIGKIKVDNEVLHKPGKLTPEEFAHIKLHQVYAVEIMEQTQGLAQVSKDVCLMHHEKLDGRGYPKGLKGDEIPLHGRMSCIVDIFDALTATRCYKEAMSPAAAFKILISLTPFHLDQALVYEFIRCVGIYPVGSLVQLSDERIGIVWEAKDRDALHPVVKCFYSLKHKRYTEVTMVDLRKAEVNIERGVSPGTLDVDPTPFY” it was “not soluble”; in that of “SKHKQSSFTKSCYPRGTLSQAVDALYIKAAWLKATIPEDRIKNIRLLKKKTKKQFMKNCQFQEQLLSFFMEDVFGQLQLQGCKKIRFVEDFHSLRQKLSHCISCASSAREMKSITRMKRIFYRIGNKGIYKAISELDILLSWIKKLLESSQ”, “soluble”; in that of “MSLELTRYEIIKILMEYVTDEIVVCNIGIPSKELFKINDREKNFYMLGSMGLSSSIGHGLALSVNEKVIAIDGDGSVLMNMGSLATIGKTTPKDFLLLIVDNCAYGSTGNQETHSTCTDLYQVSKACGIDSIGVFNEEQLRDAVKLALSESGTKVIVAKARPHNENVPNINLVPTEIKHRFMNAIKKEGHHHHHH”, “not soluble”.
In the case of “MSDLDTPTPSPHPVLLNLEQFLPYRLSVLSNRISGNIAKVYGDRYGMAIPEWRVITILALYPGSSASEVSDRTAMDKVAVSRAVARLLERGFIRRETHGDDRRRSMLALSPAGRQVYETVAPLVNEMEQRLMSVFSAEEQQTLERLIDRLAKDGLPRMASKD”, the “soluble on expression in E. coli” value is “soluble”.
The entry for “MYHWFALRSVPLVGNVLYRRLLDRFGSPEAVFRASDAELASVRGVSSAVAASIRGHDPRAFAESECERVRRAGVRIVTIRDPDYPPLLLQIADPPPYLYVKGDPTGLEPAVAVVGSRRATVYGRTVTARLAEDLARRGVAVVSGMARGIDTAAHQGALAGEGRTVGVLGCGIDVVYPPENRALFARVADRGALVSEFPLGMGPLAENFPRRNRIISGMCRGVLVVEAAERSGSLITAQMALDQGRDVFAIPGNITSSGSSGTNRLIREGAKLVAGVEDILEELVPRAAAAVAVAPPLPPLPAGEAALMAMFGADPLHIDEIIAKSALTVGEVSAMLLRLELKGVVTQLPGKFFHAN” is “not soluble”; for “MAHHHHHHMSYLLHSSSYAAATAAAERDGPARGAGGGPLNVVLSRVRSLLHGEPSRVARATSIIDDGSSGSLKRAERHSGASSASRREVLLPLTHDSARVARVPEVSGFIEHGGGFAIPAAKASPRTAPTPVAPPTTNESPVHRPPSARPVDAARDASLYERAVDYTDLEEILRCPLPPVPGCPTPCAFGRHSAGLSSDGSVTAAATLSPPPAPSSARQPPLVFRCIAADSDTGISVYSTPAEDCPMHLMRAYAVLPCSPGDVLQYMDNDIRPRWDSHLRRSALLRELTPPEQTKAVERQYRLSTSIGTAGAAVSQRSPTSLSAQSQGALRQRASSSPRTTGAIHGGCGSAVVSGPATAAASSPTAFQYLPGQRRVAIHYLETRSPVPFVQDRDFEIVVAEEVRPDDTAYVKAFSTPLGYHMPLGPHQSRYVRAVVVLSGMVARPLDAARVEEVLPPVLLRHHRAAAQHGNIQVAGIATKKPSASATVCGDAAARAACVAAPHRYCVVEYVGLVHPMGLLPAVLVNMIISAQLNAMRKMQAFIMQHPMSTLRPRSATHAATGEATGQPLQELLVSLQSLSPSPRKSSRMGKSQESDAAGRTREVKPEATGASAASVSAPLAASPAPVWWRRQMHRFASNL” it is “not soluble”.
“GYDGVRIGQGYDIHQIRVGPPEDIVADTTADTAANTADPNKQSFKRLTIGGVPVETISVLSHSDGDVIFHALVDALLGGMSCSDLGTLFPDGSPKYKNKNSLSFLRYARLLLYKRNYAIANVDIIVIAEVPKISPIREEIVRNISSALGISESQVSLKGKTHEQLGPVGQKKAIECFANALLIRKQS”: the “soluble on expression in E. coli” value is given as “soluble”.
For “LSLTQLSSGNPVYEKYYRQVEAGNTGRVLALDAAAFLKKSGLPDLILGKIWDLADTDGKGVLSKQEFFVALRLVACAQNGLEVSLSSLSLAVPPPRFHD”, the “soluble on expression in E. coli” value was “soluble”.
In the case of “MSLIGETINKLKVIKESSKRDKSRCKMYECLCECGEVIIVRSSTLRQGKIKSCGCESNKIHSELMRERNTTHGLSSNPMYQRWLGMKQRCYDVNAINYKNYGGRGIEICEEWKNDFKKFYDYMGDPPNENYQIDRINNDGNYEPGNVKWSTRSENSTNIRKKEGHHHHHH” it was “soluble”.
Turning to “MVESENKDIEESGAEVDRRDVRSLVRKLSDNNWEIPKGHIPNMRVPGRLFVSEKLLEGIEPGTIDQIANVATLPGIQKYSMAMPDAHLGYGFAIGGVAAFDVEEGVISPGGVGFDINCGVRLIRTNLQKEDVVPHIKRLTDELFSNVPSGVGSKSRFKASDKELDSAFLEGAKWAVDAGYGVEADVEHCEGNGFLEGADTSHVSSKARNRGKPQLGTLGSGNHFLEVQYVDEIYDPEVASAFGLEEGQVTVMVHCGSRGAGHQICTDHLKELSQAVKRYGIEIPDKQLACAPAQSKEAQNYFKAMLCAANYAWANRQMITHWTRESFEKIFGRDADDMEMSLLYDVAHNVAKLEEHSIEGRKKEVYVHRKGATRAFPAGHPEVPSAYRDVGQPVLIPGSMGTPSFILCGSTESMDVSFGSACHGAGRVMSRAHAKKEFHGQSIKEDLEAHGITVRATHPSVIAEEAPGVYKSSSEVVNVVHELGIARKVARVIPLGVAKGLEHHHHHH”, the “soluble on expression in E. coli” value is listed as “not soluble”.
The entry for “MSLADERIEVLKDILLELHHGASAESVQERFNQHFKGVSAIEISMMEHELMNADTGITFEDVMGLCNVHANLFKGAIADVDVPDAEQEGHPVKVFKDENLALRAAIMRIRRIIENYTKPENEDFRQEILKGLKHQFDLLGQFYHHYTRKEKLFFPIMERYGHDSPPKVMWGVDDDIRDLFKDAKATLAKLPDGSIEELSQKFEAFAKEFEEMIFKEEAILLMILLESFTQDDWLQIASESDAYGYAILKPTEKWIPHRESFDNEADADTSDNQLADALNQVQDANSPEGTNTKVINTPEGQFTITFKPKEKEAAADRTTQQPFGNGYLSVEQANLILNHLPLEITFVNKDDIFQYYNDSVPAAEMVFKRTPSQVGRNVELCHPPKVLDKVKKVFELLRNGQRDKVNMWFQSERLGKFVYVTYAAVRDQAGDFQGVLEYVQDIKPFFELDSEFNRDEGHHHHHH” is “soluble”.
The entry for “MNPLKAGDIAPKFSLPDQDGEQVNLTDFQGQRVLVYFYPKAMTPGCTVQACGLRDNMDELKKAGVDVLGISTDKPEKLSRFAEKELLNFTLLSDEDHQVCEQFGVWGEKSFMGKTYDGIHRISFLIDADGKIEHVFDDFKTSNHHDVVLNWLKEHA” is “soluble”.

These data come from the DeepSol protein solubility set.
